Legend:
C57BL/6 mice = assay: GCGR antibody with or without rapamycin in C57BL/6 mice: blood chemistry, islet cell mass; settings: 21 days
Experimental: C57BL/6 mice (males, 10 weeks of age, Taconic) were housed (5 mice per cage) in a controlled environment (12-h light/dark cycle, 22±1° C., 60-70% humidity) and fed ad libitum with standard chow (Purina Laboratory Rodent Diet 5001, LabDiet). Mice were assigned to study groups (n=10) based on baseline blood glucose levels. Mice were injected subcutaneously (sc) with GCGR antibody (3 mg/kg) or the control antibody (3 mg/kg) alone or in combination with rapamycin (10 mg/kg) or the vehicle. For the duration of the study, GCGR or control antibody was administered once weekly, whereas rapamycin or the vehicle was administered daily. Blood was collected from the tail for glucose measurements without fasting. Plasma samples were collected via submandibular bleeds at baseline and on day 21 after dosing for analysis of hormones and total amino acid levels. Seven days after the last antibody administration (day 21), mice were sacrificed, organs weighed and pancreata collected.
Pancreas α- and β-cell mass was measured as described elsewhere (Okamato et al., 2015, Endocrinology 156:2781-2794). α- and PP cell mass were determined using anti-somatostatin antibody (Sigma-Aldrich; #SAB4502861) and anti-pancreatic polypeptide antibody (Sigma-Aldrich; #SAB2500747). For quantifying Slc38a5 positive α-cells, pancreas sections were stained with human anti-glucagon and rabbit anti-Slc38a5 (Abcam; #ab72717) primary antibodies, and Alexa Fluor 488 labeled donkey anti-rabbit (Jackson ImmunoResearch; #711-545-152) and Alexa Fluor 594 donkey anti-human (Jackson ImmunoResearch; #709-585-149) secondary antibodies. For quantifying proliferating cells, Alexa Fluor 647 labeled anti-Ki67 (Abcam; #ab194724) was used in combination with anti-glucagon and anti-Slc38a5 antibodies. Slides were scanned using a Zeiss Axio Scan.Z1 slide scanner (Zeiss) and the images were analyzed using the Halo (Indica Labs).
Blood glucose was determined using ACCU-CHEK® Compact Plus (Roche Diagnostics). Plasma glucagon and insulin levels were determined using glucagon and mouse insulin ELISA (Mercodia). Plasma total amino acid levels were measured using L-Amino Acid Quantification Kit (Sigma-Aldrich).

pancreatic islets = assay: Ki67 staining of cell proliferation in pancreatic islets; format: in vivo, mouse
Source text: Ki67 staining was used to detect cell proliferation in pancreatic islets from GCGR-antibody treated mice. Cell proliferation was negligible in islets from control antibody treated mice and in non-Gcg(+) islet cells from GCGR-antibody treated mice (FIG. 3A). However, Ki67 staining was detected in GCG(+) cells from the GCGR-antibody treated mice (FIG. 3A).

B1: α-GCGR: potent monoclonal GCGR blocking antibody, HCVR/LCVR SEQ ID NOs: 86/88 (antibody, V domains shown)
VH: EVQLVESGGGLVQPGGSLRLSCAASGFTFSNYLMNWVRQAPGKGLEWLANIQEDGIEKYYVDSVKGRFTISRDNAKNSLYLQMNSLRAEDTAVYYCAREPSHYDILTGYDYYYGMDVWGQGTTVTVS
VL: DIQMTQSPSSLSASVGDRVTITCRASQGIRNDLGWYQQKPGKAPKRLIYAASSLQSGVPSRFSGSGSGTEFILTVSSLQPEDFATYYCLQYNSNPFTFGPGTKVDIK
B1 was tested, and the blood glucose levels (C57BL/6 mice; C57BL/6 mice, 3 mg/kg weekly) was “reduce”, the “plasma amino acid levels” value (C57BL/6 mice; GCGR antibody 3 mg/kg) was “significantly increased” and the α-cell size (C57BL/6 mice; GCGR antibody 3 mg/kg) was “slightly increased”. For the same molecule, the “proliferation rate in Slc38a5(+) relative to Slc38a5(−) α-cells” value (pancreatic islets; GCGR-antibody treated mice, 11 days) was 4 times and the “Ki67 staining in GCG(+) cells” value (pancreatic islets; mice treated 11 days) was “detected”.
